Experiments:
[1] = molecular target: Clo SugE; format: binding, Clostridiales bacterium oral taxon 876
[2] = substrate: N=C(N)N; test: purified protein
[3] = substrate: NC(N)=O; test: purified protein

Row | Molecule | Kd [1] | Km [2] | Km [3]
1 | N=C(N)N [guanidine] | ~1000 µM | – | –
2 | urea carboxylase (guanidine carboxylase) (Oleomonas sagaranensis) (protein) MFKKILIANRGEIAARVIKTARKMGIATVAVHSEADRFTLPVLAADEAICLGPAPAKESYLRAEAIVQACIDTGAEAVHPGYGFLSENAGFAEALAAKGIRFIGPRPEHLRDFGLKHTARALAEAAGVPLLPGTGILLSAEEALAAAHEIGYPVMLKSTAGGGGIGMSLCHDASELQARFEAVQRMASSSFGDARVYIERFVSTARHVEVQIFGDGKGNVVALGERDCSLQRRNQKVVEETPAPGLSPELRARLHAAAVALGKAVAYESAGTVEFIYDVARGDFSFLEVNTRLQVEHPVTESVFGVDLVEWMIRQAAGELLLPAQGSLVPRGAAIEVRLYAENPQANFRPQTGRLTEVAFPDDIRVDTWVATGTEVTPFYDPMLAKVIVTGADRPAAIAALSDALAKTKVWGIETNLAYLRAIAASDVFTSGAVSTAALGQFVFTAPTIEVIVAGAQTSVQDWPGRLGLWDVGVPPSGPFDDRSFRLANRILGNAEGAAGLECTLSGPTLKFHGDALIALAGAEMPAALDGVAVPMLTAIPVKAGQTLSLGQIKGAGQRTYLAVRGGIDGPKFLGARACFSLGQFGGHATGVLKAGDTLHIAAETAGEPMPADEKPLITRDWVIGVHYGPHGAPDFFQDADIDDLFAATYEVHFNSARTGVRLIGPKPRWARADGGEAGLHPSNIHDNAYAIGAIDFTGDMPIILGPDGPSLGGFVCPAVIARDELWKAGQLKPGDKVRFVPHGMAAPQVITSKDIGTPILGTIDGGPVPVVYRRAGDDYLLVEYGPMVLDIALRLRIHLLAQAVREARLPAIIDLTPGIRSLQIHYDSRVLKTATLVAALREIEAGLPPAEAVKVPSRIVHLPLSWNDPSIQLAARKYQELVRPNAPWCPSNIEFIRRINGLGSVDDVQNIIFDASYLVLGLGDVYLGAPVATPVDPRHRLVTTKYNPARTWTPENAVGIGGAYMCIYGMEGPGGYQLFGRTVQMWNAWRTTPVFTPGHPWLLRFFDQIRFFPVSEQELIEAREAFPHGRYPVRIEETTFDYAQHAAFLAAERPAIEAAKARQQTAFEVERQDWKARGLDSFVVEDGPAASDADVPEGQTPVEAQVTGNVWKIIAEEGTNVAAGDIVVIVESMKMEMEIRSPVAGKVTALRCQPGRTVQAGQIVALIEAA | – | 190 µM | 5200 µM

From publication PMC5360189 (Molecular cell, 2016)
